This is an account of results in patent publication CN108635579A (UNIV JINAN, dated 2018).

Positions count from the first letter of the chain named.

As a reminder, the Kd is the concentration at which binding is half-saturated. A low value points to a tighter complex.

The target of experiment [1] is T1, 重组人碱性成纤维细胞生长因子(bFGF) (human, UniProt P09038 143-288, limits assumed).
T1 construct: Bought protein; also called 重组人bFGF; bFGF抗原
The experiment can be described thus: cell-based or functional assay.

Experiment [2] concerns the target T1, 重组人碱性成纤维细胞生长因子(bFGF). The experiment can be described thus: SPR, bFGF immobilised on the chip, nanobody 3.125-200 nM in flow. A general note: SPR reads the build-up and loss of mass on a sensor chip optically.

T1 sequence (P09038 143-288 limits assumed): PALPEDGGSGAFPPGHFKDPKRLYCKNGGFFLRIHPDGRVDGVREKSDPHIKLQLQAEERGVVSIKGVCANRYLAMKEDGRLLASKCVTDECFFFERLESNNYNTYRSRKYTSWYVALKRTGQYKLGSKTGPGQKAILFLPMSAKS

In experiment [1], 阳性对照FGFR (receptor) showed a 最高增值抑制率, A375细胞 (CCK-8) of 25.3%; a 最高增值抑制率, B16-F10细胞 (CCK-8) of 22.1%; a 最高增值抑制率, B16细胞 (CCK-8) of 27.1%.

B1: 抗bFGF纳米抗体 Nb5 (VHH)
VHH: LQESGGGLVQAGGSLRLSCAASGRTFSSGAMGWFRQAPGKEPEFVATITWDGGTTYYADSVKGRYTISRDNAKNTVYLQMNDLKPEDTAVYSCAARSYSEAYYLIGSSDYNYWGQGTQVTVSS
notes: Alpaca nanobody; Nickel-purified, anti-Flag detected; also called Nb bFGF
Regarding B1, in experiment [2], the affinity, expressed as Kd, was 0.0124 µM.

B2: 抗bFGF纳米抗体 Nb6 (VHH)
VHH: LQESGGDLVQPGGSLRLSCEVSGSNFSINDMGWYRQAPGKRREVVAGISSVGRTMYGDPVKGRFTISRDNAKNMVYLQMNRLKPEDTAVYYCHLYGDYRGTGFWGKGTQVTVSS
notes: as for B1
On to B2, for which, in experiment [2], the equilibrium dissociation constant (Kd) was 0.0103 µM.

B3: 抗bFGF纳米抗体 Nb3 (VHH)
VHH: B2 VHH with G57A
notes: as for B1
In turn, B3 gave a Kd in experiment [2] of 0.00537 µM.

B4: 抗bFGF纳米抗体 Nb2 (VHH)
VHH: B2 VHH with T54A, G57A, H93Y
notes: as for B1
B4 yielded a Kd in experiment [2] of 0.318 µM. This Kd is about 59-fold higher than that of the molecule before.

B5: 抗bFGF纳米抗体 Nb1 (VHH)
VHH: B2 VHH with I28N, R41Q, P84A, E85K
notes: Expressed from pET22b in E. coli, purified on a nickel column and detected with an anti-Flag antibody; also called Nb bFGF
Regarding B5, the affinity in experiment [2], expressed as Kd, was 0.0113 µM.
